From patent US20190218292A1 (LABORATOIRE FRAN AIS DU FRACTIONNEMENT ET DES BIOT …, published 2019)

What was measured:
murine PD1 antigen = molecular target: T1, murine PD1 antigen (murine, UniProt Q02242 25-167, limits assumed); experiment: ELISA, coated murine PD1
T1 sequence (looked up): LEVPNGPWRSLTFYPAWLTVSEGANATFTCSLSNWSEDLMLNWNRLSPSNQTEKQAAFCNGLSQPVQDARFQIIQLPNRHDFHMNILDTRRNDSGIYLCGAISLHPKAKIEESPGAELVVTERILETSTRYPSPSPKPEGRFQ

[1] = molecular target: T2, cynomolgus monkey PD1 antigen (cynomolgus monkey, UniProt B0LAJ3 25-170); experiment: ELISA, coated cynomolgus PD1
T2 construct: also called cynomolgus PD1
T2 sequence (B0LAJ3 entry or part of it limits assumed, form in doubt): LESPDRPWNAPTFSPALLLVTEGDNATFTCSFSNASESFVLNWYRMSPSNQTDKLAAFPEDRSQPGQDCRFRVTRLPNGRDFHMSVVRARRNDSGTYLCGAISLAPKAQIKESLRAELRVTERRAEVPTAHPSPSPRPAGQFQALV

OD 450 nm at 0.2 µg/ml (murine PD1 antigen): 0.305 OD 450 nm
OD 450 nm at 0.2 µg/ml [1]: 2.39 OD 450 nm
B1: IgG1_WT nivolumab (antibody, V domains shown)
VH: QVQLVESGGGVVQPGRSLRLDCKASGITFSNSGMHWVRQAPGKGLEWVAVIWYDGSKRYYADSVKGRFTISRDNSKNTLFLQMNSLRAEDTAVYYCATNDDYWGQGTLVTVSS
VL: EIVLTQSPATLSLSPGERATLSCRASQSVSSYLAWYQQKPGQAPRLLIYDASNRATGIPARFSGSGSGTDFTLTISSLEPEDFAVYYCQQSSNWPRTFGQGTKVEIK
